Data on 15 sequences can be found in the DeepSol protein solubility set.

The nature of this series: soluble on expression in E. coli; label from the status in PepcDB or PDB records.
On to “GRAPRNGEKVLVEFVSANPTGPLHVGHARQAALGDAICRLYDASGWDVTREFYYNDAGNQIDNLAISVQARGRGIAPDAPDYPTDGYKGDYIVEIARDFAARKSVQASDGQPVTATGDLDSLDDIRAFAVAYLRREQDLDLQAFGLAFDNYFLESSLYASGRVQETVDTLVAKGHTYEEGGALWLRTTELGTGDDKDRVMRKSEGGYTYFVPDVAYHKVKWERGFHHAVNIQGSDHHGTVARVRAGLQGLEAGIPKDFPAYVLHKMVKVMRGGEEVKISKRAGSYVTMRDLIDWVGRDAVRYFLIQRRADTEFVFDIDLALSKSDENPVYYIQYAHARICTMIGNSGA”, for which the “soluble on expression in E. coli” value is given as “not soluble”.

As to “MKNIIACIDGSPTTFATCEASAWVASKINAPLILLHALDKTMRPVVSEFSGQIGLGSQEELLNELAELDEARSKVALKHGKKLLEEATEWVIKKGLTNVEQLQRHGSLLESLIDLENQLRVLVIGKLGEDQSSNKTIGSQLESIIRSIKSHTLVVTSPFSIPTSYLIAFDGSPTSEKLIEKAIKTPLLFGLDCHFVMVDDFAAKSAAFEKAAIKLKNAGLSVHEDILSGSVDEALLKYQKDHQIGMMVMGAYGHSTLRQFFLGSNTTKVLIKSEVPLLLIR”, the “soluble on expression in E. coli” value is “not soluble”.

Consider “MIILDNSIQTKKRTDSLSKLITVNTLGPEGTSSEYAAKHFISNFTLLQGLNSKLSLHDTFESCIERTLQSPLEYTIVPHAYDGIKHFYMRPDLQLLQIFRCDTPMYGLAVRPDFEFRDDMLDTSVIVSHPSPINLIKYFTRKDVRFKLVNSTSQAARKVKEGLYDIALTNELARQKYGLTFVKTFKSIPMSWSLFGKGDVDDENLEHHHHHH”, for which the “soluble on expression in E. coli” value is reported as “not soluble”. Next, “MMKILPHVTNETAPLRTVVLGLPDSTGGAPALADTYDAKSYESVLRGTYPSDEDIKIEMDAVLDVLVRHGIEVLRPEPIANYNQIFARDVAFAIDDKLFVSNLIADRARESEAFSPIWDCVGESHLVRLSEDIHAEGGDILLYDDILFIGTYLQKDYPSFKTARTNARAVDFFREFFPHKTIIPIELIKHDTDPMRSVLHLDCAFQPVGRSRAIVYRQGFLHSESFGLITEIFGGRDNLFEITPEEAYMMNTNIFSISPDTVISEQNFVRLNNHLREAWGMTVEEVPYAEISKQGGLLRCSTMPLVRE”: “not soluble”. Turning to “MTAANLTEQQRLELEAAAFRTLVHHLQTRKDVQNIDLMNLAGFCRNCLSKWYKAAADDLGVEVSNDQAREEIYGMPYAEWKAKYQKEASPEQQAAFAKSQGNA”, the “soluble on expression in E. coli” value is “not soluble”.

As for “MLEDLKRQVLEANLALPKHNLVTLTWGNVSAVDRERGVFVIKPSGVDYSIMTADDMVVVSIETGEVVEGAKKPSSDTPTHRLLYQAFPSIGGIVHTHSRHATIWAQAGQSIPATGTTHADYFYGTIPCTRKMTDAEINGEYEWETGNVIVETFEKQGIDAAQMPGVLVHSHGPFAWGKNAEDAVHNAIVLEEVAYMGIFCRQLAPQLPDMQQTLLNKHYLRKHGAKAYYGQ”, the “soluble on expression in E. coli” value was “soluble”. Next, “MAPTPKFGPKKIQNVSAVSCSVKKYQASTSSPVPILNVQERVELRKLEQMLPVSPKNCDPADVVLRAASYIDQLVATVQARVKNGTLPMGALSSLPPQYSKPIKSSRRTVSSKKSRRSMEKKR”: “not soluble”; “MMMSSEMIHVEVVYALPHEQRVLKLVVEQSATVEEIIRTSGILQMYPEIDLTVNKVGIFSRNVKLDARVRDKDRIEIYRPLLADPKEIRRKRAEQAKAAANQS”: “not soluble”. Next, “MGSDKIHHHHHHMSTKHSKAAAEFLKNKKQAAWHDETLWLVRAKRDRLSKEVPEWEELRNMACATKLYSNSHLDELLVEFENNARANGAHVYWAKDADEYCNIVYNILNQHGVKHFIKSKSMLAEECELNPFLESKGIEVVESDLGERILQLMHLKPSHIVLPAIHIKREQVGELFEREMGTEKGNFDPTYLTHAARKNLRQKFIHAEAAMTGANFAVASTGEIVVCTNEGNADMGTSQPKLQIAAFGMEKIVPDRESLGVFTRLLARSATGQPITTYTSHYRKPREGGELHIIIVDNGRSKILADPKHIKTLNCIRCGACMNTCPVYRRSGGYSYTYFIPGPIGINLGMLKAPLHYYDNVSACSLCYSCSFVCPAKVDLAEQIYLWRQDLDKLGKADRMKKVMSGGMEFMMKRPSIFNMALKWAPLVNGVPRFLIYNGLNDWGKGREMPKFAKESFNEMWKKGKVK”: “not soluble”. In the case of “MDASKSLPIRKHTTLLNRLPETRFATQLDKAKANWIVFAEYLSPRHFEDIDFFTGFYNPVLETWKVGQYEVALMAGELTSQHETILKSLNIDYASLNEVPDLSAPG”, the “soluble on expression in E. coli” value is listed as “not soluble”. Next, “MPQQTQTSAEKRCMVTKRIMLKLPDISAASLIPASIEASPAQVLGPASLAGIFPRGVRVYLTDTGAASQEKLVDAATHLRNLGYEPVPHLAARRIPSRVEFEEQVKRLAGEADVTDVLVVGGGVDRPAGPFASSMDMLSSGIFDRYGIKKIAIAGHPEGSPDFSEETAIAALRLKRDFGERSDAAMRIVTQFGFDPARFIAWAEGLAASGIDLPVHIGVSGPAKITTLLKYAALCGVGNSIAYLKKNALSLTTLARGHSPDSIVGPIERHWQANPQGPIRQIHVFPFGGLQNSADWLVSRGSWQTRDAGRPAPADSMAG”: “not soluble”; “MSLAKPFDAYISVTVKARGNGTVHLGPIHKRWSRLDMGQFLLGGSRFVDSQRQEFIYYFHPGDMKPPLNVYFSGYRTAEGFEGYYMMKRMNAPFLLIGDPRVEGGSFYIGSSEYEQGIINVIDETLEKLNFKSHELILSGLSMGSFGALYYGAQLNPQAIIVGKPLVNIGTIAEHMRLLRPEEFGTALDVLVSNEGDTSQASIQALNQKFWQTFQKKSLSQTVFAIAYMQHDDYDPHAFQELLPVLTAHQARVMNRSIPGRHNDDSEGHHHHHH”: “not soluble”. For “MSLNGDYQLTIDKMLESGVSSNPNQIINYSGKKTFTYKEFRERVYRLAKALISIGVKKGDTVAVIDWDTYVYLEAYFAVPMIGAVLHTVNVRYPQDLIYYTMDHAEDKYVIVRDEFVPILSKNKEAFYFIKGWIIYSEYGNVPDELSPKYIYDELMSKNYDIELPEISENDLATTFYTSGTTGIPKGVQFTHRQIVLHAISSGLALSDRPISLTADDVIMPLVPMFHVHAWGVPYMTIMSGRQYVLPGRYDFDHIIDLIAQENITVIAMVPSILYMIVTNPNVGKIAGRKIRAIIGGGALPEGLQKAAEKLGIMAISGYGLSETAPILTLATYNSDVKKLPLEEQKKYHLKTGIPIPLVQLRVIDDKWNDVPRDEKTIGEIVVRAPWLTSVYVKNKEGTEALWKGGWMHTGDLAVMDKFGYIKIVDREKDAVKSGGEFIPSLILEDAISACPGVVENAVVGKPHEKWGERPVAFYTGTAKPEEIRKCLEDIVRQGRIAKFWIPDDFINVKEFVKTSTGKIDKKVLREMLKKEGHHHHHH”, the “soluble on expression in E. coli” value is “soluble”. Turning to “MGSDKIHHHHHHMQDLNDIALFAAVVKHNGFSAAARDLNVPKSKLSKHVARLEEQLGVRLLERSTRKLRMTEVGRIFYEHAQGLLDGVAAAEAEIAAVRAEPTGVVRLACPIGFTPMLADILPAFHRRYPGVRLLITASNRRIDLIEERIDVALRARDQLDTDSQLIVRKFGEVRQRLAASPTLLARLGEITTDNLSQMPTLSMNEQHPNDVWRLVHATGGAIEIAHRPVVGCSDFLILERAAIEGMGIALLPDHICERAFRTGALVPVLPEWTSGNVMVHLVFPSRHGLLPATRALIDFLAENLIKALERCREVDPRPAASFEI”, the “soluble on expression in E. coli” value is “not soluble”. Next, “MSFNPTRDDFEALLNDSMGGRDFAEGTVVKGKVVGIEKDFAIIDVGLKTEGRVQLKEFGVDENGKATVKAGDTVEVFLERLENAMGEAVISREKAKREEAWTRLEGVYARNEPVMGAIVGRVKGGFTVDLGGASAFLPGSQVDIRPVRDVGPLMGKEQPFAILKMDRPRGNIVVSRRAILEEARAEQRTELVSQLQEGEIREGVVKNITDYGAFVDLGGIDGLLHVTDMSWKRVNHPSQVLAVGDTVKVQIVKINPDTQRISLGMKQLQSDPWDGVEAKYPVGAKFTGRITNITDYGAFVELEAGVEGLVHVSEMSWTKKNVHPGKIVSTSQEVDVVVLDVDPSKRRVSLGLKQALANPWEAFLEAHPVGSTVEGEVKNATEFGLFVGLDNDIDGMVHLSDIDWSVPGEEAMARYKKGDMVKAKVLDVDVEKERISLGIKQLAGDPMSGDTYRKNQTVTVTVTEVTSGGIEVRFGEDDAPMTAFIRKSDLSRDRQEQRPERFAVGDRVDAQITNVDKAARRVSLSIKSLEMAEEKEAIEQFGSSDSGASLGDILGAALRERASKD”: “soluble”.
